Measured values as given in patent publication US20210017279A1 (NANJING LEGEND BIOTECH, published 2021).
Values joined by “and” are separate entries in the source; they are usually repeats but may differ in a detail not shown here. Identical values can stand only once.

Key:
[1] = target: T1, PD-1 expressed on CHO cells (UniProt Q15116 25-288, limits assumed); test: flow cytometry on CHO cells expressing PD-1; Experiment 1
T1 construct: whole, on cells; also called CHO-PD-1 cells

[2] = target: LAG-3 on Thaw-and-Use LAG-3 Effector cells; test: cell-based or functional assay
[3] = target: PD-1 in the PD-1 cell based reporter assay; test: cell-based or functional assay
Human PD-1 [4] = target: T2, Human PD-1 (human, UniProt Q15116 25-167, limits assumed); test: SPR (Biacore T200), as in Example 3; Experiment 1
[5] = target: T1, PD-1 expressed on CHO cells; test: flow cytometry competition; blocks PD-L1 binding to CHO-PD-1 cells; Experiment 1
[6] = target: T1, PD-1 expressed on CHO cells; test: flow cytometry on CHO cells expressing PD-1; Experiment 2
[7] = target: T1, PD-1 expressed on CHO cells; test: flow cytometry competition; blocks PD-L1 binding to CHO-PD-1 cells; Experiment 2
Human PD-1 [8] = target: T2, Human PD-1; test: SPR (Biacore T200), as in Example 3; Experiment 2

T2 sequence (Q15116 25-167 limits assumed): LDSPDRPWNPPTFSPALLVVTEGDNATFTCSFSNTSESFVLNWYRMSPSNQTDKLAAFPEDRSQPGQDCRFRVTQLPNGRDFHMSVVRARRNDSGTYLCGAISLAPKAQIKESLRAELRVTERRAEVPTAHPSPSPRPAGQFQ
T1 sequence (Q15116 25-288 limits assumed): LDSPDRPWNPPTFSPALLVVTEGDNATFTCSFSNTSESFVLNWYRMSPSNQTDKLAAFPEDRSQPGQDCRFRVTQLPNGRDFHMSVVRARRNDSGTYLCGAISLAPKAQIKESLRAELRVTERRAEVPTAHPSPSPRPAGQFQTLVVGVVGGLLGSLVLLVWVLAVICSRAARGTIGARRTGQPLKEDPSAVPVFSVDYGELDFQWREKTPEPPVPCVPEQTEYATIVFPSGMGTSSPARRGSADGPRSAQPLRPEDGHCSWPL

| Binder | EC50 [1] | LAG-3 blockade reporter assay EC50 [2] | PD-1 cell based reporter assay EC50 [3] | Kd (Human PD-1 [4]) | EC50 [5] | EC50 [6] | EC50 [7] | Kd (Human PD-1 [8]) |
| --- | --- | --- | --- | --- | --- | --- | --- | --- |
| BLP-2 (bispecific antibody, human IgG4 S228P, kappa, also called PD-1 x LAG-3 proof-of-concept BABP) heavy: not shown light: DIQMTQSPSSVSASVGDRVTITCKASQDVDTAVAWYQQKPGKAPKLLIYWASTRHTGVPSRFSGSGSGTDFTLTISSLQPEDFATYYCQQYSTFPWTFGGGTKVEIKRTVAAPSVFIFPPSDEQLKSGTASVVCLLNNFYPREAKVQWKVDNALQSGNSQESVTEQDSKDSTYSLSSTLTLSKADYEKHKVYACEVTHQGLSSPVTKSFNRGEC | 4.29 nM | 2.04 nM | 5.14 nM | 4.4 nM | 3.2 nM |  |  |  |
| BLP-4 (bispecific antibody, human IgG4 S228P, kappa, also called PD-1 x LAG-3 proof-of-concept BABP) heavy: not shown light: DIQMTQSPSSVSASVGDRVTITCKASQDVDTAVAWYQQKPGKAPKLLIYWASTRHTGVPSRFSGSGSGTDFTLTISSLQPEDFATYYCQQYSTFPWTFGGGTKVEIKRTVAAPSVFIFPPSDEQLKSGTASVVCLLNNFYPREAKVQWKVDNALQSGNSQESVTEQDSKDSTYSLSSTLTLSKADYEKHKVYACEVTHQGLSSPVTKSFNRGEC | 3.51 nM | 1.85 nM | 5.94 nM | 4.5 nM | 2.58 nM |  |  |  |
| BLP-15 (bispecific antibody, human IgG4 S228P, kappa, also called PD-1 x LAG-3 BABP) heavy: not shown light: EVQLVESGGGLVQPGGSLRLSCAASGYTVSSYCMGWFRQAPGKGREGVSAIDSDGSVSYADSVKGRFTISKDNSKNTLYLQMNSLRAEDTAVYFCAADLCWVDQDQGEYNTWGQGTLVTVSSEPKSSDKTHTSPPSPDIQMTQSPSSVSASVGDRVTITCKASQDVDTAVAWYQQKPGKAPKLLIYWASTRHTGVPSRFSGSGSGTDFTLTISSLQPEDFATYYCQQYSTFPWTFGGGTKVEIKRTVAAPSVFIFPPSDEQLKSGTASVVCLLNNFYPREAKVQWKVDNALQSGNSQESVTEQDSKDSTYSLSSTLTLSKADYEKHKVYACEVTHQGLSSPVTKSFNRGEC |  | 5.12 nM | 3.32 nM |  |  | 13.7 nM | 18.5 nM | 4.4 nM |

Now from value to binder:

| EC50 [1] | LAG-3 blockade reporter assay EC50 [2] | PD-1 cell based reporter assay EC50 [3] | Kd (Human PD-1 [4]) | EC50 [5] | EC50 [6] | EC50 [7] | Kd (Human PD-1 [8]) | Binder |
| --- | --- | --- | --- | --- | --- | --- | --- | --- |
| 4.64 nM | 1.45 nM | 5.92 nM | 2 nM | 4.38 nM |  |  |  | BLP-3 (bispecific antibody, human IgG4 S228P, kappa, also called PD-1 x LAG-3 proof-of-concept BABP) heavy: not shown light: DIQMTQSPSSVSASVGDRVTITCKASQDVDTAVAWYQQKPGKAPKLLIYWASTRHTGVPSRFSGSGSGTDFTLTISSLQPEDFATYYCQQYSTFPWTFGGGTKVEIKRTVAAPSVFIFPPSDEQLKSGTASVVCLLNNFYPREAKVQWKVDNALQSGNSQESVTEQDSKDSTYSLSSTLTLSKADYEKHKVYACEVTHQGLSSPVTKSFNRGEC |
| 2.44 nM |  | 1.34 nM and 1.21 nM | 1.4 nM | 1.72 nM | 6.27 nM | 9.56 nM | 2.3 nM | PD1-BM-min (antibody, human IgG4 S228P, kappa, V domains shown, Full-length anti-PD-1 antibody, parental element of the BLP constructs; also called PD-BM-min; anti-PD-1 full-length antibody) VH: EVQLVESGGGLVQPGGSLRLSCAASGFVFSRYDMAWVRQAPGKGLEWVSFISGGGSNTYYPDTVKGRFTISRDNSKNTLYLQMNSLRAEDTAVYYCISPYYYAMEYWGQGTTVTVSS VL: DIQMTQSPSSVSASVGDRVTITCKASQDVDTAVAWYQQKPGKAPKLLIYWASTRHTGVPSRFSGSGSGTDFTLTISSLQPEDFATYYCQQYSTFPWTFGGGTKVEIKR |
